# Reference: the supplement of paper PMC10567573
# B1: CHCHD3 (parent)
# chain: YSGAYGASVSDEELKRRVAEELAL
# Variants of: B1
# Assay: protein stability index of a GFP-peptide fusion (GPS, HEK-293T) (PSI 1-6); higher = more stable
# Settings: c terminus: a fixed tail appended
# 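Also: lentivirally expressed fusions sorted by FACS into six bins by GFP to DsRed ratio, PSI derived from sequencing read proportions per bin multiplied by bin number.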
row,Variant,protein stability index
1,YSGAYGASRSDEELKRRVAEELAL,2.19
2,YSLAYGASVSDEELKRRVAEELAL,4.33
3,YSVAYGASVSDEELKRRVAEELAL,3.98
4,YSYAYGASVSDEELKRRVAEELAL,3.4
5,YSRAYGASVSDEELKRRVAEELAL,3.56
6,YSWAYGASVSDEELKRRVAEELAL,2.63
7,YSFAYGASVSDEELKRRVAEELAL,3.05
8,YSQAYGASVSDEELKRRVAEELAL,3.96
9,YSGAYGASVSDEEDKRRVAEELAL,3.3
10,YSGAYGASVSDEENKRRVAEELAL,2.47
11,YSGAYGASVSDEEYKRRVAEELAL,3.56
12,YSGAYGASVSDEEFKRRVAEELAL,2.53
13,YSGAYGASVSDEESKRRVAEELAL,2.31
14,YSGAYGASVSDEEHKRRVAEELAL,2.79
15,YSGAYGASVSDEEVKRRVAEELAL,2.63
16,YSGAYGASVSDEEIKRRVAEELAL,2.41
17,YSGAYGASVSDEECKRRVAEELAL,2.77
18,YSGAYGASVSDEEGKRRVAEELAL,3.46
19,YSGAYGASVSDEELKRRPAEELAL,2.58
20,YSGAYGASVSDEELKRRCAEELAL,2.76
21,YSGAYGASVSDEELKRRHAEELAL,2.75
22,YSGAYGASVSDEELKRRQAEELAL,1.72
23,YSGAYGASVSDEELKRRNAEELAL,2.73
24,YSGAYGASVSDEELKRRSAEELAL,2.42

row,Variant,protein stability index
1,YSGAYGASVSDEELKRRTAEELAL,2.39
2,YSGAYGASVSDEELKRREAEELAL,2.59
3,YSGAYGASVSDEELKRRMAEELAL,2.09
4,YSGAYGASVSDEELKRRKAEELAL,2.38
5,YSGAYGASVSDEELKRRVAEELAF,1.77
6,YSGAYGASVSDEELKRRVAEELAG,2.96
7,YSGAYGASVSDEELKRRVAEELAV,2.37
8,YSGAYGASVSDEELKRRVAEELAT,2.48
9,YSGAYGASVSDEELKRRVAEELKL,2.71
10,YSGAYGASVSDEELKRRVAEELVL,2.55
11,YSGAYGASVSDEELKRRVAEELTL,3.13
12,YSGAYGASVSDEELKRRVAEELNL,2.97
13,YSGAYGASVSDEELKRRVAEELWL,2.87
14,YSGAYGASVSDEELKRRVAEELFL,2.97
15,YSGAYGASVSDEELKRRVAEELPL,3.31
16,YSGAYGASVSDEELKRRVAEVLAL,2.19
17,YSGAYGASVSDEELKRRVAESLAL,3.57
18,YSGAYGASVSDEELKRRVAERLAL,2.89
19,YSGAYGASVSDEELKRRVAECLAL,3.9
20,YSGAYGASVSDEELKRRVAEYLAL,2.45
21,YSGAYGASVSDEELKRRVAEALAL,2.94
22,YSGAYGASVSDEELKRRVAEQLAL,3.05
23,YSGAYGASVSDEELKRRVAEWLAL,2.62
24,YSGAYGASVSDEELKRRVAEFLAL,2.44

row,Variant,protein stability index
1,YSGAYGASVSDEELKRRVAENLAL,2.9
2,YSGAYGASVSDEELKRRVAEGLAL,3.32
3,YSGAYGASVSDEELKRRVAEMLAL,3.14
4,YSGAYGASVSDEELKRRVAEHLAL,2.44
5,YSGKYGASVSDEELKRRVAEELAL,2.63
6,YSGWYGASVSDEELKRRVAEELAL,2.11
7,YSGIYGASVSDEELKRRVAEELAL,3.21
8,YSGCYGASVSDEELKRRVAEELAL,2.64
9,YSGYYGASVSDEELKRRVAEELAL,2.15
10,YSGEYGASVSDEELKRRVAEELAL,3.31
11,YSGLYGASVSDEELKRRVAEELAL,2.7
12,YSGDYGASVSDEELKRRVAEELAL,4.64
13,YSGTYGASVSDEELKRRVAEELAL,3.66
14,YSGVYGASVSDEELKRRVAEELAL,3.03
15,YSGAYGASVPDEELKRRVAEELAL,2.6
16,YSGAYGASVVDEELKRRVAEELAL,2.92
17,YSGAYGASVWDEELKRRVAEELAL,1.89
18,YSGAYGASVGDEELKRRVAEELAL,2.51
19,YSGAYGASVTDEELKRRVAEELAL,2.71
20,YSGAYGASVFDEELKRRVAEELAL,2.64
21,YSGASGASVSDEELKRRVAEELAL,4.99
22,YSGAQGASVSDEELKRRVAEELAL,5.28
23,YSGAPGASVSDEELKRRVAEELAL,4.88
24,YSGACGASVSDEELKRRVAEELAL,2.75

row,Variant,protein stability index
1,YSGARGASVSDEELKRRVAEELAL,4.59
2,YSGAYGASVSDEELKRRVAEETAL,3.26
3,YSGAYGASVSDEELKRRVAEEAAL,2.5
4,YSGAYGASVSDEELKRRVAEENAL,3.21
5,YSGAYGASVSDEELKRRVAEECAL,2.57
6,YSGAYGASVSDEELKRRVAEEFAL,1.59
7,YSGAYGASVSDEELKRRVAEEMAL,2.87
8,YSGAYGASVSDEELKRRVAEEGAL,2.33
9,YSGAYGASVSDEELKRRVAEEWAL,1.89
10,YSGAYGASVSDEELKTRVAEELAL,3.04
11,YSGAYGASVSDEELKLRVAEELAL,2.75
12,YSGAYGASVSDEELKPRVAEELAL,2.55
13,YSGAYGASVSDEELKNRVAEELAL,2.65
14,YSGAYGASVSDEELKIRVAEELAL,2.11
15,YSGAYGASVSDEELKCRVAEELAL,1.92
16,YSGAYGASVSDEELKSRVAEELAL,1.95
17,YSGAYGASVSDEELKARVAEELAL,2.34
18,YSGAYGASVSDEELKDRVAEELAL,3.66
19,YSGAYGASVSDEELKYRVAEELAL,2.19
20,YSGAYGASVSDEELKGRVAEELAL,2.92
21,YSGAYGASVSDEELKVRVAEELAL,2.17
22,YMGAYGASVSDEELKRRVAEELAL,3.24
